Literature values as cited in article PMC7752828.

Assays:
[1] = target: Fibrin(ogen) gamma' chain γ'-domain (Homo sapiens) (UniProt P02679)
[2] = target: Fibrin E-domain E-domain (Homo sapiens) (UniProt P02671)

Kd [1]: 100 nM | Kd [2]: 2800 nM
Substance: Thrombin (from UniProt P00734)
